In the series the target is GST-NS1 (Influenza A virus (H3N2)) (UniProt P03495). Put plainly: fluorescence anisotropy. (In general: Polarisation of emitted light reports the rotation of a fluorescent probe.)

Broadly, the Kd is the constant that tells how readily two partners part at equilibrium. Read a low Kd as higher affinity.

Sequence of GST-NS1 (Influenza A virus (H3N2)) (P03495 whole entry): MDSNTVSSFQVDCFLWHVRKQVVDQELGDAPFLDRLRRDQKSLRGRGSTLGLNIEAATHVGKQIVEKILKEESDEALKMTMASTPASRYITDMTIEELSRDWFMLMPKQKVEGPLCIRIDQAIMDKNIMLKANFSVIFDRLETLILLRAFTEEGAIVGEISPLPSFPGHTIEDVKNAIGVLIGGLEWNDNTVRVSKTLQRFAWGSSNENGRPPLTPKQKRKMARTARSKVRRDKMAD

Sequence GGGGGGGGGGGGGGGGGU [Poly (G)18] gave a Kd of 1200 nM. That is a single-digit micromolar value. Turning to “CCAUCCUCUACAGGCG / CGCCUGUAGAGGAUGG [dsRK1]”, the Kd was 170 nM. Under “GCUAUCCAGAUUCUGAUU / GAAUCAGAAUCUGGAUAGC [dsCR1]” stands 2400 nM.

(Values after paper PMC6205234.)
